From patent US20150087584A1

Target: Helicoverpa armigera gut proteases (HGP) (Helicoverpa armigera)
Assay: cell-based or functional assay

Row | Binder | inhibition of HGP activity (BApNA and Azocasein substrates) [%] | HGPI activity of the IRD alone at its IC50 concentration [%]
1 | QPICTNSSAGLKGCNYYNADGTFICEGESDPNHPKACPKNCDPNIAYSLC [inhibitory repeat domain IRD-9 of Capsicum annuum Pin-II proteinase inhibitors (CanPIs)] | 80 to 85 | –
2 | NRLCTNCCAGRKGCNYYSADGTFICEGESDPNNPKACPRNCDPNIAYSLC [inhibitory repeat domain IRD-12 of Capsicum annuum Pin-II proteinase inhibitors (CanPIs)] | 80 to 85 | 51
